Legend:
[1] = substrate: Cc1cc(=O)oc2cc(NC(=O)[C@H](CCCNC(=N)N)NC(=O)[C@@H](N)CCCNC(=N)N)ccc12; test: purified protein, by the assay type; settings: pH 8.0; 26.0 °C
[2] = substrate: N=C(N)NCCC[C@H](NC(=O)[C@@H](N)CCCNC(=N)N)C(=O)Nc1ccc2ccccc2c1; test: purified protein, by the assay type; settings: pH 8.0; 26.0 °C

B1: Full length PgDPP III (1–886 aa) (Porphyromonas gingivalis W83) (protein)
chain: MTKETTQHRSGERIARFADIEVLSYRADLFGTLTPKQRMLCYHLSEAALRGRDITTIQNCRYNLWVRSLMERIYTHLSKSERTDDFALLEEYLFCIWFANGIHHHYSGAKFIARFSPGFLRAALREAGVELEPEEQVLLERVLYDTDFLPKQTEQSGEEDIIKASSVNFYAPGITRAEAESHYKNLIEALPENEKSCPPSFGLNTRLIRSTSGELKDEVCCIDGLYGPAIEAVVASLEAAIPYTENEEQAACIRLLCDYYRTGDIRLYDRFCIRWVENNRTRIDFINGFTEVYADPIGIHGSWEGLVHMQDEEAGRRTRIISEHAGWFEAHSPIDARFRKKNPHGISATVVNVLTIAGDSYPATPIGINLPNADWIRAEHGSKSVTIDNITDAYNHAARGTGLYEEFIPDEEVRRHVELHADLTDSLHTDLHECLGHGSGQLLPGVPGDALGEHASTLEETRADLFALYFLADPKMIELGLLTDPDAYKANYYKYMLNGLMTQLVRIKRGEEIEEAHMRNRALIARYVLEHAERPGAMSLVCEEGKTALVIKDYEAVRAIIAGLLTEVQRIKSEGDYTAGKALVERYAVHVDPLLHEEVLTRYAKLDIAPYKGFVNPRLRPVYNSEGRLTDATIEYTEGYAEQMLRYSAEYSFLPTDSPLLQEARRLRSHLRRAMDGVLSASMREKGLHYGINFGVTREHLLRLARTADASAPLADYLWRRDVRETKILATMIFPAEELTHEQATRLLREADNVELREQLTANLLERMPEAIRSIGRWIESKETTPDMMTGVLTLAARLFTRGIFPEDVPAEKLLTLAILHLSDEEQKAELRRASALLLKRYGRGSAERTKKVLCLLPESSQDTAPVLYELCEDIRFELDFYPKDE
[1]
  Km: 2.56 ± 0.32 µM
  kcat: 0.29 ± 0.11 s⁻¹
  kcat/Km: 113000 M⁻¹ s⁻¹
[2]
  Km: 0.97 ± 0.16 µM
  kcat: 0.75 ± 0.13 s⁻¹
  kcat/Km: 773000 M⁻¹ s⁻¹

— paper PMC5708649, “A novel Porphyromonas gingivalis enzyme: An atypical dipeptidyl peptidase III with an ARM repeat domain” (PLoS ONE, 2017)
